From the domain aggregation screens of Martell et al. (2025)

Assay: soluble fraction after stress (log2 fold change); higher = more stays soluble; pooled small domains, quantitative proteomics
Conditions: stress: 50 degC
Outline: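 Pooled custom libraries of small protein domains were measured in a high-throughput format, with quantitative proteomics as the read-out. Each library was stressed at 50°C. Aggregation propensity is given as the base-two logarithm of the fold change in how much of each protein stays soluble after the stress. Higher values mean a larger share of the protein remains in solution.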

In the case of “HMSQVLVRINQDLNIRSGPGAQYDIIAVYRSGAIASVIGTYNNWYKVNFELDSKSYTGWINGTFTSR”, the “soluble fraction (log2)” value is reported as -1.93.

For “HMAEDDAVQKAVREAVAESADAVADYKAGSERALNFIVGVVMKKTRGKASPGEVHRLVKAEVEK”, the “soluble fraction (log2)” value was 0.4.

For “HMGFAANLSRLMEYHNISMYRLAKEVGVHQTTVKNWLEEESEPKIAALEKIVGLLGVSYDELLG”, the “soluble fraction (log2)” value was -4.56.

In the case of “HMGKKIVERRNTILNMVNKYGTLDFPQLRDAFPDVSDVTLRKDLQYLDSTKQAIRTHGGIKSI”, the “soluble fraction (log2)” value is reported as 0.0534.

With “HMQLVGSSAAVLIPAPAGGLGKIRLEFRGQTIDLIAKATDGGALIEGGAVTIVDVRDGQADVSV” the “soluble fraction (log2)” value was -0.552.

In the case of “HMSSGNLESLLNKLHNEDYFVRLDAVKALGALGDPGAIDYLIEMLSENGIMRGWVANSLAALGEAQWKKII”, the “soluble fraction (log2)” value is reported as -1.94.

For “HMTNYYTVTFKEGDTVLKEVSVHSGDGVPYAVAPKRDDIVGWSYNGNTYTTDLNTLKIKKEVTFTAVT”, the “soluble fraction (log2)” value was -0.222.

For “HMSTSAAELLRTARQQAGMSQSAVAELAKTSQSAIAMYEAGNREPSLPVLQRLLAATGHQLSLSVLP”, the “soluble fraction (log2)” value was -0.228.

For “HMGPLYARVKAIVLARIMGGDWPPGTALPAEMELARALGVSQGTVRKALDALTAEQVVVRRQGSGTYVAE”, the “soluble fraction (log2)” value was -1.04.

For “HMDAIDPKTVTSWADLWKPEYKSSLLLTDDAREVFQMALRKLGYSGNTTDPKEIEAAYNELKKLMPNVAAF”, the “soluble fraction (log2)” value was -0.0387.

For “HMRIVSGRESMLGRTVVVADWAGERGHVVVDGERWNAVASTPLAAGRRARIVGIDGLTLSVSPDDKP”, the “soluble fraction (log2)” value was 0.216.

For “HMGQISDEETLKTVASRIIDANPDEARKYRSGKTGLLGFFVGQVMKATQGEANPKLASRIVKELLE”, the “soluble fraction (log2)” value was -0.0262.

With “HMKIERKGDESYLSFVERATSALSDGLIDYQQWGRAVVGEDLYSEENTRRIAKFFAQFIQNLEND” the “soluble fraction (log2)” value was -1.9.

With “HMLTEKEEEVMQILWDNGPLFVREILEFYPDPKPHYNTVSTVIRVLEEKNFASHKAYGNTYQYFP” the “soluble fraction (log2)” value was -0.0146.

In the case of “HMIAANMTISQRIAAALAEYGVMSVKDIAQEVLGATDKKDTEKIRVTLTRDHGKRFRTYSDGTWSLKDWRP”, the “soluble fraction (log2)” value is reported as -1.12.

In the case of “HMSTPAKVTPTNPIVKQLFNAAETQIKNKDIQNAIASYEKADTLTTDEKVKQYIHYQLSTLKDDN”, the “soluble fraction (log2)” value is reported as -0.14.

With “HMSPSTNKTFSFSKENISIGQTVFIKKLNQNATVLTLPNKSNQLQVQFGVITMNVKLEDLALPTN” the “soluble fraction (log2)” value was -0.171.

For “HMDAPHPSVVQVYFESRDRSWTYYNDRFDLHEGDLVYVEGKLEGVRGRVVEVSYNFRIKLADYKRVIAVA”, the “soluble fraction (log2)” value was -3.66.

With “HMEGVSNLIVSVTRVKVTVDLSQAKVYLSIFPSEQAAFYLNALQQNRFQLKHDLSQLLKNQLRRIPTLQF” the “soluble fraction (log2)” value was 0.283.

For “HMGGLIEPLSARELEVLELMSLGKTNQEIARDLVVASGTIKAHAASIYRKLDAANRTEAVTHARELGIL”, the “soluble fraction (log2)” value was -0.0084.

In the case of “HMPISQGATVKHNANMRKGASTKYKVTGVLQEGEEVKILSQSNGWYKIQNSDNEKGWTYNTHINASDK”, the “soluble fraction (log2)” value is reported as 0.0951.

For “HMEQGDTQQEIREKILNLLADGERHMITELKNIRTDQPIDDDKIVGKTLKTLLDEEEVYMDGSYIQLNG”, the “soluble fraction (log2)” value was 0.259.

With “HMTDIVPNLIGKSLKDAIQSVEKSNLKAIFDGHGIVVSQQPRPGSPIPARKIMKVTLSPDYR” the “soluble fraction (log2)” value was 0.011.

With “HMVLSPAQVRRALMVSGLFTEARVARQLGVPMDLKQILRIILRNTPPQSAMARELESAIDEIESRNAMRD” the “soluble fraction (log2)” value was -1.62.

In the case of “HMGKGGVAYLLESEFGIELPKDMQREFGPIANDIVDSLGREVSGAELKSMFWKEYIERETPFLLLLVTGQL”, the “soluble fraction (log2)” value is reported as 0.457.

For “HMHTGLTNYEYKQIKSSLLKILTQSESMRLGELVDKVDQFESEKVTTVIRFLVGNEELMLFDDTLTLKKQL”, the “soluble fraction (log2)” value was 0.0246.

In the case of “HMGELVIPPLRERTVVDAVAEAERLGFVVQVEPVASSLPEGRVLGQSPEPGTRARKSQVVVLQVSRG”, the “soluble fraction (log2)” value is reported as -0.148.

With “HMNSVLPQEVKSSLNDFFTKYAPGSIAQKLINHASFTGGKVVVTGVELTQTQADDLKKAFKDKFF” the “soluble fraction (log2)” value was 0.000827.

In the case of “HMAAMSLGERIGAHRKRMGISQEELGHRMGVSRQAVSKWETGRAVPDMENLLALARLFGVPVSELAD”, the “soluble fraction (log2)” value is reported as -0.177.

In the case of “HMIMLDRILKIMDYNKFTPSEFADVLEIDRSRLSHILNGRNKPSLEIVMKILEKFPEISSDWLLFGSGNML”, the “soluble fraction (log2)” value is reported as -1.49.

In the case of “HMLNPLLLPFVEAEDFQVKLEILAAMEGKVGEEDLDILYEALDLPKMTGNIEEQIHSIKQYIEMRK”, the “soluble fraction (log2)” value is reported as -1.15.

With “HMFADLNPDENYGQVYIRTNTIDNLYQTLLDNKTRIHPNGLLELKPWGQKEFSILDPDKNLLTFGES” the “soluble fraction (log2)” value was 0.0797.

With “HMSSVVARRARIATLVVETSVASQEELGRLLADEGITVTQATLSRDLDALGAVKVLSADGGTRYRIPGQ” the “soluble fraction (log2)” value was -0.778.

For “HMDHFFSKYDSIVNHTVQKKETLFGISKKYGLTINEVIKFNPGIQIDKLKRRSVLIIPLMKKN”, the “soluble fraction (log2)” value was -0.917.

With “HMVINVNEIIRRIKELKTFKTDRQVADFLGVSKATVSNWMARNSIDFPLLINKLDGVDLTWLLTGRGTPE” the “soluble fraction (log2)” value was -1.16.

In the case of “HMLLNSLIDTLAAEKATVVPGTEVFKLYDTYGFPWELTEEIASERGFTIDHEGFEAAMKEQRERAREARV”, the “soluble fraction (log2)” value is reported as -0.0257.

In the case of “HMQQPVAYSEFVQSVNDRQIREAQIQGERIVATDNNGNRMTVIWPENDTKLLDELVQNGVLTSIQE”, the “soluble fraction (log2)” value is reported as 0.12.

With “HMEVPTGNHIRRWRKSLDITQVKLSSLSGVAQSIIAKIENETVDPRVSTLRKLVEALSRFENP” the “soluble fraction (log2)” value was -1.89.

With “HMNPSVSSDERILLQKALGILSAEQKQIVMLHAVAGIKHREIAKLLDMPIATVLSKYSRAVNKLRHAMEA” the “soluble fraction (log2)” value was -0.423.

For “HMEINKLIELIGGYKALSEVLNVSKSAISNYKKRGSLPSYAIPIIVKELKSKGISIDLSEFT”, the “soluble fraction (log2)” value was -0.66.

With “HMGQGEISVPRLEGLSLRETSELLGLFGLRLEAAGSGIALSQNPPAGARVKAGDVIQVDFGEPGN” the “soluble fraction (log2)” value was 0.0136.

In the case of “HMLFSEKLKQAMQDLHLNQIQVVGLTGKSKGSISQYISGKQVPSEATQRDIAISLGLEENYFSKK”, the “soluble fraction (log2)” value is reported as 0.282.

For “HMNIETHIVPKLLAPIRLQEYGVGIFNNIPTKSALKKALKKQLITVDKTVATTATFIKGGETIELAYQ”, the “soluble fraction (log2)” value was -1.47.

With “HMDSITEADLLRWAHALSGIARTGLGFTESRYERERYEEVLAVAADILAASSRSHDRAALVDEWLKMVGV” the “soluble fraction (log2)” value was -1.8.

In the case of “HMSYKYYSTERPLMPGSFPKPQGNTVLNIENFNDRSYVGKIGREAWGFIEYEKPISPVLLDDYELVAA”, the “soluble fraction (log2)” value is reported as 0.0613.

With “HMENVIYGINGPVVTVRNSRSFSMMEMVFVGNERLVGEVIGITDKITTIQVYEETTGLRPGEPVYGTGSPM” the “soluble fraction (log2)” value was -3.97.

With “HMRDRYEYLKELRLYLSPLGRTEEDRVIEYYAELIGDKIESGIPENGVLSQLGTPRELADKILAETQEY” the “soluble fraction (log2)” value was -0.35.

For “HMLTLEDMTRINSIISPRIKKGQSLYHIAKNNGDELNISESTLRRLVMTGEMDAGIIDLPQAVK”, the “soluble fraction (log2)” value was -0.138.

With “HMRLTIAQLSEKTGVPERTIRYYIDRGLVPSAHGERRGAWYDTVHLEPLLRIQQWREAGLSLEAIADLLR” the “soluble fraction (log2)” value was -1.19.

For “HMVSKIEAPLPGIILSVDVKEGDTVKAGDKLMVMEAMKMENAILAETNGVVKSIKVKIQDSVLQGDILAEI”, the “soluble fraction (log2)” value was -0.171.

For “HMPKLSNNHMAVWQAIRSRTAKGEPSTRAVIRDDLKAAGMDTSKHFSRWLTKLIDLGMVVKDGENLSIR”, the “soluble fraction (log2)” value was -0.16.

With “HMNKLIIDAAEDKIFFMIMNNDISYNISHENTKINFEKLIILINDFLSSKKLKINDITGLYV” the “soluble fraction (log2)” value was 0.067.

With “HMDIPTSAEAVRAYLASGFIKGIGEATARMLVDKFGAETLEIIKTEPMKLTKISGIGPKKAKMIHESYLEK” the “soluble fraction (log2)” value was 0.177.

With “HMPEPLTARETEVLRLLSGGYSNREIAAAMFLAEGTIKNHVSAVLLKLGVRDRTRAVLRGLELGLIQ” the “soluble fraction (log2)” value was -1.81.

For “HMDASVTIEQVERMVQANVSDDVIISQLQGRGAAQNLSTDDIINLTQKGISAEVIKAYQSAG”, the “soluble fraction (log2)” value was 0.0658.

In the case of “HMEEQQIQLIQMKMEKDHKYVGKKISELRIKNMLIVLIKRGDEDIIPRAEVKIKEGDILVLSAQSYEG”, the “soluble fraction (log2)” value is reported as -0.00468.

For “HMVPDVVGKDYALAQAELEGANLVVAKGSSRYDDTLPAGVVLATDPKVGTVVKPGAKVTVILSK”, the “soluble fraction (log2)” value was 0.251.

For “HMREEFIGVLDGKVAIFHGRPERKGPLKEVTAIEVDKLPRQEQADLEKGLVIRTDKEKLQLMEGLAALLD”, the “soluble fraction (log2)” value was 0.289.

With “HMSDVLPEAILERRLVKKGNRAVPQVLIKWTKLPATSATWEDFYVLQQRFPTALAWGQAPSPGGQM” the “soluble fraction (log2)” value was -0.221.

For “HMYGLSFLIGFTVVDRTYGDIGKVTAIDDSTVNTLMAVGDRLIPAQEAFITKIDNTKKIIYTQLPEGLL”, the “soluble fraction (log2)” value was 0.177.

In the case of “HMSDTFTITTESGRIDKIITAHETTHTRSQVQKWLQDGLVTVNGNPVKANFKVTAGDVVTVTIPEVK”, the “soluble fraction (log2)” value is reported as 0.104.

For “HMKNSKIVIQKRHNHILELLKQNRTMDVTVLAERLGVTGATIRRDLKKLEQEGTIVRSFGKVSFVG”, the “soluble fraction (log2)” value was -0.867.

With “HMSSANIKLDPLERQATQQIINNIKRKYPNATIENLQEVANDAIATMRQPEFSNYTVDKFVSYFLSM” the “soluble fraction (log2)” value was -0.333.

In the case of “HMGEPVEIEEPITVRSLSEALGLKSSAIISHLMRQGVFATINQNLDKETAELIAAEYGIELRIK”, the “soluble fraction (log2)” value is reported as 0.00995.

For “HMVQIFIPVVHDDHWFLIVFSREEDTFYVLDSLPSLSRISTINGIISTLKEHLQQASVGPQYSVKVLPVK”, the “soluble fraction (log2)” value was -0.172.

With “HMAPFSGVEPREWDSLVERGRQSGEVHAEDVTHVLRHVELTGDVLTDVQSKMAEHGITIDDA” the “soluble fraction (log2)” value was 0.206.

With “HMADTIEVVVQVNGKVRAKISTSPEVFADSTKLQELALADANVQKFIAGQTIRKVIIPKGTKLLNIV” the “soluble fraction (log2)” value was -0.227.

In the case of “HMSAGYTYQNYQQDLKSGNVQNIHIYLSEEMYSGNVKVIYKNNKSVTFTVTDVTIAEAEARQVGISPIIYE”, the “soluble fraction (log2)” value is reported as -0.1.

With “HMALPASLSPREREIVSLISQGKTNSEIASLLYISVPTVKTHISNIFQKTGVSNRTSLLNRLRMS” the “soluble fraction (log2)” value was -0.164.
